Results as given in patent US20050069921, “Compositions, kits, and methods for stimulation of homologous recombination” (published 2005).
Numbering of substitutions follows the chain as printed.

Tests used:
[1] = tested on: I-SceI; assay: cell_activity; conditions: homologous recombination; about 2.5-fold fewer broken ends than wild-type core RAG
[2] = biological target: T1, RAG-1/RAG-2 core, wild type (Mus musculus, UniProt P15919;P21784 P15919:330-1040,P21784:1-387); assay: cell_activity; conditions: homologous recombination, extrachromosomal; cleavage seen by Southern blot (FIG. 3C)
T1 sequence 1: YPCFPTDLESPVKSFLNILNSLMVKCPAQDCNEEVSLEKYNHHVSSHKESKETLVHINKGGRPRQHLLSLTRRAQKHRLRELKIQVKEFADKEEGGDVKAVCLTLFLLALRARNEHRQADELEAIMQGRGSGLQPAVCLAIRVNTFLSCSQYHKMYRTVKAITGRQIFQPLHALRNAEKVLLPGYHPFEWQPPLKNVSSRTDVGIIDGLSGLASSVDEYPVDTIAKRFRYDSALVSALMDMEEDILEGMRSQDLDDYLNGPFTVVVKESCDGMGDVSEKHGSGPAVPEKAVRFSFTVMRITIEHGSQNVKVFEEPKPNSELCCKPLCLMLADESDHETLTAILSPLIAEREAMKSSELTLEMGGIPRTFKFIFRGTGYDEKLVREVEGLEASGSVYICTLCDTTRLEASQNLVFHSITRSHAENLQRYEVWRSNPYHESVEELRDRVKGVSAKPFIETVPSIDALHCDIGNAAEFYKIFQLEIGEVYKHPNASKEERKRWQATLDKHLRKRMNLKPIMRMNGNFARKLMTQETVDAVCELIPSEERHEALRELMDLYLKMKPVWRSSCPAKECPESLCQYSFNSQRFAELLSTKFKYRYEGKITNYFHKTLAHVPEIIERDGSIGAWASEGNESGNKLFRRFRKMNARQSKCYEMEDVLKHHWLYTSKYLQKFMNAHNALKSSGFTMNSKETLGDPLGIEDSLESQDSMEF
T1 sequence 2: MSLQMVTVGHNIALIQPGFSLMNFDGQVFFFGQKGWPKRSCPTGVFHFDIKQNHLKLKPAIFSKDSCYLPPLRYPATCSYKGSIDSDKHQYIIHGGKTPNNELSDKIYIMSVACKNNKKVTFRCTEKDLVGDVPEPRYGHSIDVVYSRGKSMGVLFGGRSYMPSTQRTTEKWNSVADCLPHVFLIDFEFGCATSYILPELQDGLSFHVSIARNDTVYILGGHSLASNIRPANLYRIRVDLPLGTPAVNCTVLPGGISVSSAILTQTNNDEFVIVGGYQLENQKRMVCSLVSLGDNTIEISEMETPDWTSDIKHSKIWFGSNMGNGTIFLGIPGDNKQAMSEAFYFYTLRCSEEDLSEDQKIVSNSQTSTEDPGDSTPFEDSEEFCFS

[3] = biological target: T2, RAG-1 R838A/K839A/R840A core/RAG-2 core RAG-1 R838A/K839A/R840A (Mus musculus) (UniProt P15919+P21784); assay: cell_activity; conditions: homologous recombination; signal ends 2.5-fold lower than wild type (FIG. 3C)
T2 sequence 1: T1 sequence 1 with R509A, K510A, R511A
T2 sequence 2: T1 sequence 2

[4] = biological target: RAG-1/RAG-2 full-length (UniProt P15919;P21784 P15919:1-1040,P21784:1-527); assay: cell_activity; homologous recombination, integrated single 12-RSS substrate; conditions: chain copies: 2,2
Procedure: (§1) Relative stimulation is calculated by dividing the percentage of CFP-positive cells of experimental (nuclease-containing) transfections by the percentage of CFP-positive cells present in the DDE RAG mutant expressing transfection (negative control). It is important to maintain constant (DNA) in each transfection because increases in DNA (including non-substrate molecules) nonspecifically stimulate homologous recombination, as recently reported (Hostager et al., 2003). Experiments have been repeated over a dozen times on three different flow cytometers; FIGS. 3, 4, 6, and 7 show data from five experiments on the Becton Dickinson LSRII.
(§2) The next set of experiments took a complementary approach. Instead of using nick-only RAG proteins, a nick-only substrate was used (i.e., a single 12-RSS, which readily undergoes nicking in vitro (Cuomo et al., 1996; Ramsden et al., 1996) but yields very poor DSB formation in vivo (Steen et al., 1997)). […] Even when the nick-only mutants are assayed on the single RSS substrate, they are able to stimulate homologous recombination as efficiently as the full-length or core wild-type RAG proteins (FIG. 7). […]

[5] = biological target: T1, RAG-1/RAG-2 core, wild type; assay: cell_activity; homologous recombination, integrated single 12-RSS substrate; robust also for full-length RAG; conditions: tags: GST-RAG-1 core (pEBG-1DN) and RAG-2 core (pMal-1 vector); chain copies: 2,2
Procedure: as §1, §2

Molecule: I-SceI site substrate
- activity (fold over wild-type core RAG) [1]: 9

Molecule: SE substrate (pJH289 recombination zone, 12/23 RSS pair)
- activity (fold over DDE) [2]: 13
- activity (fold over DDE) [3]: 205

B1: 12-RSS substrate (dsDNA)
DNA 1: CACAGTGCTACAGACTGGAACAAAAACC
DNA 2: GGTTTTTGTTCCAGTCTGTAGCACTGTG
- activity [4]: 15 fold over DDE
- activity [5]: 15 fold over DDE
